# Laboratory results taken from patent US20260217779A1 (Chugai, published 2026).
# Numbering of substitutions follows the chain as printed. Numbers in names are those of the source.
# T1: human CXCR3 (hCXCR3) on Ba/F3 transfectant cells (human, UniProt P49682 1-368)
# T1 sequence: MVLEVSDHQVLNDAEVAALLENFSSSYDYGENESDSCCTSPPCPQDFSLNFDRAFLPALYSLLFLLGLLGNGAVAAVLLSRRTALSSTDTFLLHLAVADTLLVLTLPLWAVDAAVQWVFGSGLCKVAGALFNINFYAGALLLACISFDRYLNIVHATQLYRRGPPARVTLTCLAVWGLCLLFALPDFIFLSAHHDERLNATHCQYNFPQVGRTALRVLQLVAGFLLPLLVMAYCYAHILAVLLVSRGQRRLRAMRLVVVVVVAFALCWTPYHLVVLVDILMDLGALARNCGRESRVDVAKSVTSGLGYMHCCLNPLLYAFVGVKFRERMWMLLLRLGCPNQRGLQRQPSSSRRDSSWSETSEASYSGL
# B1: hCXCL11.0008-G1T4k.one//VHn-G1T4h.one.H435R (Fc fusion)
# chain 1: FHMFKRGRCLCIGPGVKAVKVADIEKASIMYPSNNCDKIEVIITLKENKGQRCLNPKSKQARLIIKKVERKNFEPKSSDKTHTCPPCPAPELRRGPSVFLFPPKPKDTLMISRTPEVTCVVVDVSHEDPEVKFNWYVDGVEVHNAKTKPREEQYNSTYRVVSVLTVLHQDWLNGKEYKCKVSNKGLPSSIEKTISKAKGQPREPQVCTLPPSREEMTKNQVSLWCLVKGFYPSDIAVEWESNGQPENNYKTTPPVLDSDGSFFLYSKLTVDKSRWQEGNVFSCSVMHEALHNHYTQKSLSLSP
# chain 2: EPKSSDKTHTCPPCPAPELRRGPSVFLFPPKPKDTLMISRTPEVTCVVVDVSHEDPEVKFNWYVDGVEVHNAKTKPREEQYNSTYRVVSVLTVLHQDWLNGKEYKCKVSNKGLPSSIEKTISKAKGQPREPQVYTLPPSRCEMTKNQVSLSCAVKGFYPSDIAVEWESNGQPENNYKTTPPVLDSDGSFFLVSKLTVDKSRWQEGNVFSCSVMHEALHNRYTQKSLSLSP
# B2: hCXCL11.0026-G1T4k.one//VHn-G1T4h.one.H435R (Fc fusion)
# chain 1: HFPMFKRGRCLCIGPGVKAVKVADIEKASIMYPSNNCDKIEVIITLKENKGQRCLNPKSKQARLIIKKVERKNFEPKSSDKTHTCPPCPAPELRRGPSVFLFPPKPKDTLMISRTPEVTCVVVDVSHEDPEVKFNWYVDGVEVHNAKTKPREEQYNSTYRVVSVLTVLHQDWLNGKEYKCKVSNKGLPSSIEKTISKAKGQPREPQVCTLPPSREEMTKNQVSLWCLVKGFYPSDIAVEWESNGQPENNYKTTPPVLDSDGSFFLYSKLTVDKSRWQEGNVFSCSVMHEALHNHYTQKSLSLSP
# chain 2: B1 chain 2
# B3: hCXCL11.0009-G1T4k.one//VHn-G1T4h.one.H435R (Fc fusion)
# chain 1: B1 chain 1 with H2I
# chain 2: B1 chain 2
# B4: hCXCL11.0029-G1T4k.one//VHn-G1T4h.one.H435R (Fc fusion)
# chain 1: B2 chain 1 with H1L
# chain 2: B1 chain 2
# B5: hCXCL11.0015-G1T4k.one//VHn-G1T4h.one.H435R (Fc fusion)
# chain 1: B1 chain 1 with H2R
# chain 2: B1 chain 2
# B6: hCXCL11.0021-G1T4k.one//VHn-G1T4h.one.H435R (Fc fusion)
# chain 1: B2 chain 1 with H1A
# chain 2: B1 chain 2
# B7: hCXCL11.0027-G1T4k.one//VHn-G1T4h.one.H435R (Fc fusion)
# chain 1: B2 chain 1 with H1I
# chain 2: B1 chain 2
# B8: hCXCL11.0022-G1T4k.one//VHn-G1T4h.one.H435R (Fc fusion)
# chain 1: B2 chain 1 with H1D
# chain 2: B1 chain 2
# B9: hCXCL11.0011-G1T4k.one//VHn-G1T4h.one.H435R (Fc fusion)
# chain 1: B1 chain 1 with H2L
# chain 2: B1 chain 2
# B10: hCXCL11.0013-G1T4k.one//VHn-G1T4h.one.H435R (Fc fusion)
# chain 1: B1 chain 1 with H2N
# chain 2: B1 chain 2
# B11: hCXCL11.0024-G1T4k.one//VHn-G1T4h.one.H435R (Fc fusion)
# chain 1: B2 chain 1 with H1F
# chain 2: B1 chain 2
# B12: hCXCL11.0016-G1T4k.one//VHn-G1T4h.one.H435R (Fc fusion)
# chain 1: B1 chain 1 with H2S
# chain 2: B1 chain 2
# B13: hCXCL11.0018-G1T4k.one//VHn-G1T4h.one.H435R (Fc fusion)
# chain 1: B1 chain 1 with H2V
# chain 2: B1 chain 2
# B14: hCXCL11.0012-G1T4k.one//VHn-G1T4h.one.H435R (Fc fusion)
# chain 1: B1 chain 1 with H2M
# chain 2: B1 chain 2
# B15: hCXCL11.0017-G1T4k.one//VHn-G1T4h.one.H435R (Fc fusion)
# chain 1: B1 chain 1 with H2T
# chain 2: B1 chain 2
# B16: hCXCL11.0014-G1T4k.one//VHn-G1T4h.one.H435R (Fc fusion)
# chain 1: B1 chain 1 with H2Q
# chain 2: B1 chain 2
# B17: hCXCL11.0010-G1T4k.one//VHn-G1T4h.one.H435R (Fc fusion)
# chain 1: B1 chain 1 with H2K
# chain 2: B1 chain 2
# B18: hCXCL11.0019-G1T4k.one//VHn-G1T4h.one.H435R (Fc fusion)
# chain 1: B1 chain 1 with H2W
# chain 2: B1 chain 2
# B19: hCXCL11.0023-G1T4k.one//VHn-G1T4h.one.H435R (Fc fusion)
# chain 1: B2 chain 1 with H1E
# chain 2: B1 chain 2
# B20: hCXCL11.0028-G1T4k.one//VHn-G1T4h.one.H435R (Fc fusion)
# chain 1: B2 chain 1 with H1K
# chain 2: B1 chain 2
# B21: hCXCL11.0020-G1T4k.one//VHn-G1T4h.one.H435R (Fc fusion)
# chain 1: B1 chain 1 with H2Y
# chain 2: B1 chain 2
# Molecular target: T1, human CXCR3 (hCXCR3) on Ba/F3 …
# Assay: cell-based or functional assay
Activity retention rate at 33 nM [%],Activity retention rate at 100 nM [%],Activity retention rate at 300 nM [%],Luminescence value at 33 nM,Luminescence value at 100 nM,Luminescence value at 300 nM,Binder
44,73,108,3.4e+06,1.22e+07,1.34e+07,B1
71,77,80,5.46e+06,1.29e+07,9.92e+06,B2
13,41,109,966000,6.79e+06,1.35e+07,B3
53,92,108,4.07e+06,1.54e+07,1.34e+07,B4
34,73,98,2.62e+06,1.23e+07,1.22e+07,B5
108,93,84,8.26e+06,1.56e+07,1.04e+07,B6
67,100,102,5.18e+06,1.67e+07,1.27e+07,B7
178,89,49,1.37e+07,1.48e+07,6.06e+06,B8
3,24,77,262000,4.02e+06,9.6e+06,B9
71,78,81,5.49e+06,1.31e+07,1.01e+07,B10
32,72,105,2.47e+06,1.2e+07,1.31e+07,B11
65,75,69,4.95e+06,1.25e+07,8.57e+06,B12
24,50,81,1.85e+06,8.32e+06,1.01e+07,B13
17,46,95,1.33e+06,7.6e+06,1.18e+07,B14
61,74,69,4.72e+06,1.24e+07,8.54e+06,B15
105,89,60,8.07e+06,1.48e+07,7.51e+06,B16
7,30,63,524000,4.93e+06,7.78e+06,B17
4,28,93,325000,4.66e+06,1.15e+07,B18
189,98,48,1.45e+07,1.64e+07,5.98e+06,B19
26,53,90,2e+06,8.87e+06,1.11e+07,B20
28,62,95,2.15e+06,1.03e+07,1.18e+07,B21
